Data taken from WO2009138494A2 (dated 2009).

B1: 107-A7 (VHH)
VHH: EVQLVESGGGLVQAGGSLRLSCVASGRTLSTVNMGWFRQAPGKERDIVARISGSSVSTYYAESVRGRFTISRDNAKNTVYLQMNSLRPEDTGVYYCVADSPGGRSYEYWGQGTQVTVSS
notes: not shown: C-terminal c-myc tag and (His)6 tag coded by the vector
B2: 107-A9 (VHH)
VHH: EVQLVESGGGLVQAGGSLRLSCVASGRTLSTYNMGWFRQAPGKERDIVARISGSSVSTYYAESVRGRFTISRDNAKNTMYLQMNNLRPEDTAVYYCVADGPGGRSYEYWGQGTQVTVSS
notes: as for B1
B3: 107-C12 (VHH)
VHH: EVQLVESGGGLVQAGGSLRLSCVASGRTLSTVNMGWFRQAPGKERDIVARISGSSISTYYAESVRGRFTISRDNAKNTVYLQMNSLRPEDTAVYYCVADSPGGRSYEYWGQGTQVTVSS
notes: as for B1
B4: 107-E9 (VHH)
VHH: EVQLVESGGGLVQAGGSLRLSCVASGRTLSSVNMGWFRQAPGKERDIVARISPSSVSTYYAESVKGRFTISRDNAKNTVYLQMNSLRPEDTGVYYCVADSPGGRSYEYWGQGTQVTVSS
notes: as for B1
B5: 107-G9 (VHH)
VHH: EVQLVESGGGLVQAGGSLRLSCVASGRTLSTVNMGWFRQAPGKERDIVARISPSSVSTYYSESVKGRFTISRDNAKNTVYLQMNSLRPEDTAVYYCVADSPGGRSYEYWGQGTQVTVSS
notes: as for B1
B6: 133-H11 (VHH)
VHH: EVQLVESGGGLVQAGGSLRLSCVASGRSLSTVNMGWFRQAPGKERDIVARISGSSISTYYAESVRGRFTISRDNAKNTVYLQMNSLRPEDTAVYYCVADSPGGRSYEFWGQGTQVTVSS
notes: as for B1
B7: 133-A1 (VHH)
VHH: EVQLVESGGGLVQAGESLRLSCVASGISISTEVMGWYRQAPGKQGESVAIIKTDGSTYYPDSVKGRFAISRDNAKNTVYLAMNSLKLEDTGVYYCIIAGRGRGQGTQVTVSS
notes: as for B1
B8: 133-H4 (VHH)
VHH: EVQLVKSGGGLVQAGESLRLSCVASGISISTEVMGWYRQAPGKQGESVAIIKTDGSTYYPDSVKGRFAISRDNAKNTVYLQMNSLKLEDTGVYYCVIPGRGPGQGTQVTVSS
notes: as for B1
B9: 172-E5 (VHH)
VHH: EVQLVESGGGLVQTGGSLRLSCAASGSTFSNAVMGWFRQAPGKEREFVARITWNGGSTYYGDSAKGRFTISRDNAKTTAYLLMNSLQPEDTANYFCAARMRPVFYSTSGQESFYDYWGQGTQVTVSS
notes: as for B1
B10: 161-A3 (VHH)
VHH: EVQLVESGGGLVQTGGSLRLSCAASGSTFSKAVMGWFRQAPGKEREFVARITWNGGSTYYGDSAKGRFTISRDIGKTTAYLLMNSLQPEDTANYFCAARMRPVFSSSSVQESFYDYWGQGTQVTVSS
notes: as for B1
B11: 172-F11 (VHH)
VHH: EVQLVESGGGLVQTGGSLRLSCAASGSTFSRAVMGWFRQAPGKEREFVARITWNGGSAYYGDSAKGRFTISRDNAKTTAYLLMNSLQPEDTANYFCAARMRPVSDSSSGQESFYDYWGQGTQVTVSS
notes: as for B1
B12: 172-F7 (VHH)
VHH: EVQLVESGGGLVQAGGSLRLSCAASGRTFSRYVMGWFRQAPGKEREFVAVINWSGGSTDYSTYVKGRFTIFRDNAKNTVFLEMTSLEPEDTAVYYCAAGEYYTGDSSRYDHWGQGTPVTVSS
notes: as for B1
B13: 161-E1 (VHH)
VHH: EVQLVESGGGLAQAGGSLRLSCAASGRTFSRYVMGWFRQAPGKEREFVSVINRSGGSTDYSTYVKGRFTIFRDNAKNTVFLEMTSLEPEDTAVYYCAAGEYYTGDSSRYDHWGQGTPVTVSS
notes: as for B1
B14: 172-A12 (VHH)
VHH: EVQLVESGGGLVQAGGSLRLSCAASGRTFSRYVMSWFRQAPGKEREFVAVINWSGGSTDYSTSVKGRFTIFRDNAKNTVYLETTSLELEDTAVYYCAAGEYYTGASSRYDHWGQGTPVTVSS
notes: as for B1
B15: 172-B7 (VHH)
VHH: EVQLVESGGGLVQAGGSLRLSCAASGRTFSSYVMGWFRQAPGKEREFVSVINRSGGSTDYASSVKGRFTISRDNAKNTVYLEMTSLEPEDTAVYYCAAGEYYTGISSRYDYWGQGTPVTVSS
notes: as for B1
B16: 172-G3 (VHH)
VHH: EVQLVKSGGGLVQAGGSLRLSCAASGRTFSRYIMGWFRQAPGKEREFVAVINRSGGSTDYASSVKGRFTISRDNAKNTVYLEMTSLEPEDTAVYYCAAGEYYTGSSSRYDHWGQGTPVTVSS
notes: as for B1
B17: 161-A11 (VHH)
VHH: EVQLVESGGGLVQAEGSLRLSCVASGRTFDTYVMGWFRQAPGKEREFVAAINRSGVTDYPDSATGRFTISRENAKNTVYLQGTSLKPEDTGVYYCAARKAFYYGTSSYPNDYAHWGQGTQVTVSS
notes: as for B1
B18: 161-C9 (VHH)
VHH: EVQLVESGGGLVQAEGSLRLSCVASGTHVMGWFRQASGKEREFVAAINRSGSTDYPDSADSAKGRFTISRDNAKNTVYLQMTSLKPEDTGVYYCAARKAFYFGTSSYPSDYAYWGQGTQVTVSS
notes: as for B1
B19: 161-F2 (VHH)
VHH: EVQLVESGGGLVQAEGSLRLSCVASGPTFDTYVMGWFRQAPGKEREFVAAINRSGSTDYPDYWDSAKGRFTISRDNAKNTVYLQMTSLRPEDTGVYYCAARKTFYFGTSSYPNDYAYWGQGTQVTVSS
notes: as for B1
B20: 161-H1 (VHH)
VHH: EVQLVESGGGLVQAGGSLRLSCAPSRRTFSTYVMGWFRQAPGMEREFVSAISWSSGSTRYADSVKGRFTISRDSVKNTMYLQMNSLKPEDTAVYYCAAGASFGSIFWESAREYNYWGQGTQVTVSS
notes: as for B1
B21: 161-H4 (VHH)
VHH: EVQLVESGGGLVQAGGSLRLSCAASGRPDSSYFMGWFRQAPGKEFEFVSRINWIGSNTAYADSVKGRFTISRDNAKNTVYLQMNSLKPEDTAVYFCVATTINSFNSGNYKDPRLWTYWAQGTQVTVSS
notes: as for B1
B22: 172-A1 (VHH)
VHH: EVQLVESGGGLVQAGGSLRLSCTASGRTFSSFVMGWFRQAPGKEREFVAYITLRGGDSPLYADSVKDRFTISRDIAKNLVYLQMNSLKPEDTAVYYCAARYSGGSVYRNDYAYWGQGTQVTVSS
notes: as for B1
B23: 172-C6 (VHH)
VHH: EVQLVESGGGVVQAGGSLSLSCAASGRTLSVYAMGWFRQAPGKEREFVATISVSGVYTYYTDSVKARFTISRDNAKNTVYLQMNSLKPEDTAVYYCAAGSKPTFLGSSYDYWGQGTQVTVSS
notes: as for B1
B24: 172-C9 (VHH)
VHH: EVQLVESGGGLVQAGGSLRLSCAASGRTYSIDSMAWFRQAPGKERQFLGSILWSDDSTNYADSVKGRFTISRDNAKNTMYLQMGSLKPEDTAVYYCRSWDGRQVYWGQGTQVTVSS
notes: as for B1
B25: 172-H4 (VHH)
VHH: EVQLVESGGGLVQAGGSLRLSCAASGRTFDSYAMGWFRQAPGKEREFVAAIGYSGTYDADSVKGRFTISRDNAKKTTVYLQMNNLKPEDTAVYYCAAAGTFSTTVGTTTSHYDYWGQGTQVTVSS
notes: as for B1
B26: 161-F4 (VHH)
VHH: EVQLVESGGGLVQPGGSLRLSCAASGSIGSGDAMGWYRQPPGKQRERVATITSGGLTVYTESVKGRFAISRDNAKNTVYLQMNSLKPEDTAVYYCNTVNYRVGWGPGTQVTVSS
notes: as for B1
B27: 161-E2 (VHH)
VHH: EVQLVESGGGLVQAGGSLRLSCAASGRAFSSYVMGWFRQTPGKEREFVSVINWSGGSTDYSSSVKGRFTISRDNAKNTVYLQMTSLEPEDTAVYYCAAGQYYTGRSDRYDYWGQGTPVTVSS
notes: as for B1
B28: 172-B3 (VHH)
VHH: VQLVKSGGGGLVQAGGSLRLSCAASGRTFSRYVMGWFRQAPGKEREFVAVINRSGGSTDYAASVKGRFTIARDNAKNTVYLEMTSLEPEDTAVYYCAAGEYYTGSSSRYDHWGQGTPVTVSS
notes: as for B1
B29: 172-C1 (VHH)
VHH: EVQLVESGGGLVQAGGSLRLSCAASELAFDFDGYNFAWVRQAPGREREFVSVINRSGGSTDYASSVKGRFTISRDNAKNTVYLQMTSLEPEDTAVYYCAAGPYYTGSSDRYDYWGQGTPVTVSS
notes: as for B1

target: T1, recombinant human TLR4/MD2 (rhTLR4/MD2), R&D Systems cat no: 3146-TM/CF (human, UniProt O00206 24-631; Q9Y6Y9 17-160, limits assumed); assay: ELISA: TLR coated at 2 ug/ml, periplasmic extract of the clone, anti-VHH detection, OD against no-Nanobody control
T1 construct: Bought protein, coated on ELISA plates
T1 sequence (O00206 24-631 limits assumed, chain 1 of 2): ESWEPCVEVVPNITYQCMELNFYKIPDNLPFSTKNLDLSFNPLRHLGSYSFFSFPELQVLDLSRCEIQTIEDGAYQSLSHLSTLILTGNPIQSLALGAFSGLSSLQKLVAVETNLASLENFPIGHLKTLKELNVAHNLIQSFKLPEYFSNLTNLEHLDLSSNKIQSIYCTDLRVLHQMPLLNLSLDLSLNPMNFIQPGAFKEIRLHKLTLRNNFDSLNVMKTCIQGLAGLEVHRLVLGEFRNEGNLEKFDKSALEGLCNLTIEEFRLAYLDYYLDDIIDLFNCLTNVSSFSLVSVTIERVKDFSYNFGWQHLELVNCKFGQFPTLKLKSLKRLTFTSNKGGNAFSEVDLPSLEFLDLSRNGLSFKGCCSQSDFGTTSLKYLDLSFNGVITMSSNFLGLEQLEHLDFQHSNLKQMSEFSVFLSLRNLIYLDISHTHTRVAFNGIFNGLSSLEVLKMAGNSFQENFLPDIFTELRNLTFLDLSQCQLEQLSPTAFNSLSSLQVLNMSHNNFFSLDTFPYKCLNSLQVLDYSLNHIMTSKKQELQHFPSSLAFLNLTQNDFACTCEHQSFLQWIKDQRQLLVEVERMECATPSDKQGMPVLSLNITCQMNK
T1 sequence (Q9Y6Y9 17-160 limits assumed, chain 2 of 2): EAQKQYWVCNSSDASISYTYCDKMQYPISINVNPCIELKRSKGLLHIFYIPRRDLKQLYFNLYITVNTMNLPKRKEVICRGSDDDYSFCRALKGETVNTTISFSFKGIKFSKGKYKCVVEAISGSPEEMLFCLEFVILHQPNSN

Binding result, binds:
B1
B2
B3
B4
B5
B6
B7
B8

target: T2, recombinant murine TLR2/Fc chimera, R&D Systems cat no: 1530-TR (murine, UniProt Q9QUN7 25-587); assay: as above
T2 construct: Bought Fc chimera, coated on ELISA plates; also called mTLR2/Fc; mTLR2; not shown: Fc part of the chimera
T2 sequence (looked up): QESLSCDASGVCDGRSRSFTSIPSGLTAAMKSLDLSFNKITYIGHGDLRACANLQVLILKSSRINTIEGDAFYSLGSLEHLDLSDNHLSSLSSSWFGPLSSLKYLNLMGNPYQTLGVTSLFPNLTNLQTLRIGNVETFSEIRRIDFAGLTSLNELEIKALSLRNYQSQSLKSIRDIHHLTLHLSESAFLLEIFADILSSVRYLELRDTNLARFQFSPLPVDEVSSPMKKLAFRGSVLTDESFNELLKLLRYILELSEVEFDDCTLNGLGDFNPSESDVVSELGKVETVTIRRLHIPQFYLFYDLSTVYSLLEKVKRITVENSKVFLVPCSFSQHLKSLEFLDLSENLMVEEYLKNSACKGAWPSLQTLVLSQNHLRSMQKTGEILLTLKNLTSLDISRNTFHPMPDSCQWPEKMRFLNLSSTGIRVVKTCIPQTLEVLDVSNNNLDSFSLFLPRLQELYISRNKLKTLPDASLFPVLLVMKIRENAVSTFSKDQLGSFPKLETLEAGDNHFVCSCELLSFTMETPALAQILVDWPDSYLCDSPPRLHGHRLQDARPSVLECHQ

Binding result, binds:
B9
B10
B11
B12
B13
B14
B15
B16
B17
B18
B19
B20
B21
B22
B23
B24
B25
B26
B27
B28
B29
